Assay results as given in publication PMC11224109, “Synthesis and preclinical evaluation of novel ^18F-vancomycin-based tracers for the detection of bacterial infections using positron emission tomography” (European Journal of Nuclear Medicine and Molecular Imaging, 2024).

How the values were obtained:
[1] = Distribution coefficient LogD7.4, shake-flask n-octanol/PBS; type: physicochemical; conditions: shake-flask n-octanol/PBS pH 7.4, 500 µL each, 10 µL tracer in saline, vortexed 30 s, shaken 15 min, gamma counter, mean ± SD
Procedure: The tracer distribution coefficient in n-octanol/PBS pH 7.4 (LogD7.4) was determined using a shake-flask methodology. To an Eppendorf tube containing 500 µL n-octanol and 500 µL PBS, 10 µL tracer solution in saline was added. The vial was vortexed for 30 s and placed on an Eppendorf shaker for 15 min. After incubation, layers were separated by centrifugation (1 min at 10.000 rpm) and a fraction of the n-octanol layer was pipetted off. To minimize contamination of the bottom layer with the n-octanol layer, the bottom PBS layer was collected by puncturing the bottom of the Eppendorf tube with a 22G needle and aspirating a fraction of the PBS layer. Collected fractions were weighted to correct for collected volume and subsequently measured on a calibrated gamma counter and corrected for decay. LogD7.4 was calculated as [drawing 1] .

[2] = test system: S. aureus; test: In vitro tracer binding to S. aureus; design: species or system Staphylococcus aureus; conditions: clinical isolate, culture OD600 about 3.0, 37 °C, sampled at 0, 15 and 30 min, washed twice, gamma counter
Procedure: (§1) Single colonies of clinical S. aureus and E. coli isolates were used to inoculate TSB and incubated overnight. From the overnight cultures, fresh cultures were started and grown to an optical density at 600 nm (OD600) of approximately 3.0. Both strains were incubated with tracer (3.5 MBq in 1 mL 0.9% saline) in a water bath at 37 °C. The final tracer concentration was 120 kBq ± 28 (38.6 pg ± 9.1 and 0.5 pg ± 0.1 of [^18F]BODIPY-FL-vancomycin and [^18F]PQ-VE1-vancomycin, respectively) per mL culture. At fixed time intervals (0, 15 and 30 min), aliquots were collected (2.0 mL in a 2 mL Eppendorf tube) and washed twice with sterile PBS (1.0 mL per washing step). In each washing step, the bacteria were pelleted by centrifugation (10.000 rpm, 60 s) and resuspended in fresh PBS. […] Measurements were corrected for background and decay. Results are reported as counts per s (Bq). To correlate bound tracer with the number of bacteria in a sample, the bacterial suspensions (2 ×) were plated and CFUs were counted.

[3] = test system: E. coli; test: In vitro tracer binding to E. coli; design: species or system Escherichia coli; conditions: clinical isolate, culture OD600 about 3.0, 37 °C, sampled at 0, 15 and 30 min, washed twice, gamma counter
Procedure: as §1

[4] = in vivo; conditions: in vivo; for tissue uptake at 0.5 h / tissue uptake at 1 h / tissue uptake at 1.5 h: male, C57BL/6, mouse, 2 MBq, total radioactivity, Biodistribution
Procedure: All murine experiments were approved by the Animal Care and Use Committee of the University of Groningen under license protocol number 2114768-01-001. In vivo biodistribution was performed in male C57BL/6 mice (age 8 weeks, 25 g). Per tracer, the animals were divided in three groups based on the tracer distribution times (30 min, 60 min, and 90 min). […] Each experimental arm (i.e. time point) consisted of three animals. […] Tracer was administered at t = 0 via penile vein injection (2.0 ± 0.9 MBq in 100 µL 0.9% saline solution, Supplemental Table 2). After tracer administration, the animals were transferred to a Siemens Focus 220 microPET small animal scanner (Siemens, Munich, Germany) and scanned for the designated time, followed by a transmission scan of 10 min for attenuation correction. PET data were normalized and corrected for decay, after which the PET data were reconstructed using OSEM2D-Z1-SC-256. The PET data frames used for reconstruction were: 6 × 10 s, 4 × 30 s, 2 × 60 s, 120 s, 180 s, 4 × 300 s, 3 × 600 s, 1200 s or until the designated scan time was reached, taking into account a 10-min transmission scan following the emission scan. Next, animals were terminated, and organs harvested to assay biodistribution in a calibrated gamma counter (Wizard2, Perkin Elmer, Waltham, United States).

[5] = Summary of tracer stability in vitro and in vivo
Procedure: Stability of the tracers was determined in PBS and human plasma. In a typical experiment, 1 MBq of radioactivity (10–20 µL) was added to 250 µL of PBS or human plasma. Samples were heated to 37 °C on a shaker and sampled at fixed intervals. For samples containing human plasma, protein was precipitated using two volumes of cold MeCN. Precipitated samples were briefly centrifuged to pellet the insoluble fraction and supernatant was used for stability assessment. Supernatant (1 µL) was loaded on a TLC plate and imaged using BAS-IP MS 2025 E plates (Fujifilm, Tokyo, Japan) on an Amersham Typhoon Biomolecular Imager (GE Healthcare Bio-Sciences Corp, Chicago, United States) equipped with a phosphor imaging stage. [^18F]BODIPY-FL-vancomycin has an Rf of 0.68 (petroleum ether/MeOH 3:1), [^18F]FB-vancomycin has an Rf of 0.66 (2 M NaOAc/MeOH 5:1). For [^18F]PQ-VE1-vancomycin, conditions described in [44] were used.

For `Cc1cc(C)n2c1C=C1C=CC(CCC(=O)N(C)[C@H](CC(C)C)C(=O)N[C@H]3C(=O)N[C@@H](CC(N)=O)C(=O)N[C@H]4C(=O)N[C@H]5C(=O)N[C@H](C(=O)N[C@H](C(=O)O)c6cc(O)cc(O)c6-c6cc5ccc6O)[C@H](O)c5ccc(c(Cl)c5)Oc5cc4cc(c5O[C@@H]4O[C@H](CO)[C@@H](O)[C@H](O)[C@H]4O[C@H]4C[C@](C)(N)[C@H](O)[C@H](C)O4)Oc4ccc(cc4Cl)[C@H]3O)=[N+]1[B-]2(F)F` [[^18F]BODIPY-FL-vancomycin], the LogD7.4 [1] was -1.72 ± 0.02 (n = 10), the “Binding to S. aureus” value [2] was “rapid and selective binding to S. aureus” and the “Binding to E. coli” value [3] was “not to E. coli”. For the same molecule, the tissue uptake at 0.5 h ([4]; iv, Bladder) was 4.83 %ID/g, the tissue uptake at 1 h ([4]; iv, Bladder) was 7.62 %ID/g and the tissue uptake at 1.5 h ([4]; iv, Bladder) was 9.43 %ID/g. The tissue uptake at 0.5 h ([4]; iv, Bone) was 1.2 %ID/g, the tissue uptake at 1 h ([4]; iv, Bone) was 2.71 %ID/g and the tissue uptake at 1.5 h ([4]; iv, Bone) was 3.27 %ID/g. It also gave a tissue uptake at 0.5 h ([4]; iv, Brain) of 0.05 %ID/g, a tissue uptake at 1 h ([4]; iv, Brain) of 0.09 %ID/g and a tissue uptake at 1.5 h ([4]; iv, Brain) of 0.05 %ID/g. It also gave a tissue uptake at 0.5 h ([4]; iv, Fat) of 0.59 %ID/g, a tissue uptake at 1 h ([4]; iv, Fat) of 0.67 %ID/g and a tissue uptake at 1.5 h ([4]; iv, Fat) of 0.49 %ID/g. The tissue uptake at 0.5 h ([4]; iv, Heart) was 0.96 %ID/g, the tissue uptake at 1 h ([4]; iv, Heart) was 1.25 %ID/g and the tissue uptake at 1.5 h ([4]; iv, Heart) was 0.81 %ID/g. For the same molecule, the tissue uptake at 0.5 h ([4]; iv, Kidneys) was 7.77 %ID/g, the tissue uptake at 1 h ([4]; iv, Kidneys) was 7.13 %ID/g and the tissue uptake at 1.5 h ([4]; iv, Kidneys) was 7 %ID/g. The tissue uptake at 0.5 h ([4]; iv, Large intestine) was 0.93 %ID/g, the tissue uptake at 1 h ([4]; iv, Large intestine) was 1.34 %ID/g and the tissue uptake at 1.5 h ([4]; iv, Large intestine) was 0.91 %ID/g. The tissue uptake at 0.5 h ([4]; iv, Liver) was 2.27 %ID/g, the tissue uptake at 1 h ([4]; iv, Liver) was 3.47 %ID/g and the tissue uptake at 1.5 h ([4]; iv, Liver) was 2.86 %ID/g. It also gave a tissue uptake at 0.5 h ([4]; iv, Lungs) of 4.59 %ID/g, a tissue uptake at 1 h ([4]; iv, Lungs) of 6.68 %ID/g and a tissue uptake at 1.5 h ([4]; iv, Lungs) of 4.39 %ID/g. For the same molecule, the tissue uptake at 0.5 h ([4]; iv, Muscle) was 0.42 %ID/g, the tissue uptake at 1 h ([4]; iv, Muscle) was 0.66 %ID/g and the tissue uptake at 1.5 h ([4]; iv, Muscle) was 0.46 %ID/g. It also gave a tissue uptake at 0.5 h ([4]; iv, Plasma) of 2.41 %ID/g, a tissue uptake at 1 h ([4]; iv, Plasma) of 3.25 %ID/g and a tissue uptake at 1.5 h ([4]; iv, Plasma) of 2.13 %ID/g. The tissue uptake at 0.5 h ([4]; iv, Small intestine) was 1.1 %ID/g, the tissue uptake at 1 h ([4]; iv, Small intestine) was 2.01 %ID/g and the tissue uptake at 1.5 h ([4]; iv, Small intestine) was 1.89 %ID/g. For the same molecule, the tissue uptake at 0.5 h ([4]; iv, Spleen) was 1.41 %ID/g, the tissue uptake at 1 h ([4]; iv, Spleen) was 3.02 %ID/g and the tissue uptake at 1.5 h ([4]; iv, Spleen) was 2.73 %ID/g. It also gave a tissue uptake at 0.5 h ([4]; iv, Stomach) of 1.16 %ID/g, a tissue uptake at 1 h ([4]; iv, Stomach) of 1.59 %ID/g and a tissue uptake at 1.5 h ([4]; iv, Stomach) of 0.98 %ID/g. The tissue uptake at 0.5 h ([4]; iv, Whole blood) was 1.68 %ID/g, the tissue uptake at 1 h ([4]; iv, Whole blood) was 1.86 %ID/g and the tissue uptake at 1.5 h ([4]; iv, Whole blood) was 1.1 %ID/g. The Accumulation ([4]; mouse) was “Accumulation in liver, kidneys and lungs”, the Muscle uptake ([4]; mouse) was “Low muscle uptake” and the “Crossing of the blood-brain barrier (BBB)” value ([4]; mouse, iv) was “no substantial signal was observed in the brain”. The Stability [5] was “Stable in vitro and in vivo up to 2 h”.
